What was measured:
Tg2576 mice = experiment: Chronic s.c. leptin infusion in Tg2576 mice under high or low fat diet; assay type: in vivo, mouse
Procedure: Blood was withdrawn (approximately 1 ml) from deeply anaesthetized animals by cardiocentesis and mixed with 25 μl of 164 μM EDTA anticoagulant. Plasma was prepared immediately and frozen at −70° C. Plasma leptin concentrations were determined by a radioimmunoassay (RIA) (Chung et al., Am. J Physiol. 274:R985-R990 (1998)), using a kit from LINCO Research, Inc. (Missouri).
APPswe (SEQ ID NO: 13) expressing mice (Tg2576) or wild-type littermates were maintained in pathogen-free environment at 25° C. on a 12-12 h light-dark cycle. Mice were euthanized between the ages of 31 and 40 weeks. They were provided ad libidum access for up to 9 weeks (i.e., 1 week prior to leptin treatments and 8 weeks during such treatments) to a high fat diet (D12451) containing about 45% of the total calories from fat (Research Diets, NJ) or to a low fat diet (D12450B) containing about 10% of the total calories from fat. Equal number of male and female Tg2576 mice under each diet were administered leptin or a placebo (PBS) from the age of 32 wks to up to 40 wks of age. For this, mice were anaesthetized with intraperitoneal injection of ketamine (55 mg/ml) and xylazine (7-10 mg/ml) and surgically fitted with an Alzet miniosmotic pump (model 2004, Durect Co, CA) placed subcutaneously. Local subcutaneous injection of 0.5 ml of 0.5% lidocaine insured postoperative relief. Half of the mice received daily about 20 μg leptin in PBS (0.25 μl/h of 3.33 mg/ml recombinant murine leptin) and the other half were infused with PBS. Four from each group (two males and two females) were euthanized after 4 weeks treatment. Osmotic pumps were replaced in the rest and the mice then treated for a total period of 8 weeks. Wild-type littermates were also treated with leptin under high or low diet regimens. […]
In panel (a), plasma leptin was quantified in one year old mice with the following genotypes: i) double mutant APPSwe/PS1M146V ii) single mutant PS1M146V and iii) wild-type (a cross between C57BL/6Ntac and B6SJLF2). […] Plasma Aβ was also measured in these mice prior to treatment. […] In panel (c), plasma leptin was determined by radioimmunoassay (“RIA”) (LINCO Research, Inc.) in 8 month old Tg2576 and WT littermate mice and then again following treatments as described in FIG. 4b. Leptin also was measured in WT but not Tg2576 mice prior to treatment. In panel (d), plasma insulin was determined by RIA (LINCO Research, Inc.) in 8 month old WT and Tg2576 mice and then again following a 2 month LFD or HFD with (+) or without (−) leptin infusion. In panel (e), plasma total Aβ (Aβ40 (SEQ ID NO: 4) plus Aβ42/43 (SEQ ID NO: 5/SEQ ID NO: 6) was measured in 8 month Tg2576 mice and then again following a 2 month LFD or HFD with (+) or without (−) leptin infusion. […]

[1] = test system: Neuro2a cells stably transfected with hyg-sa134 (SEAP-APP); experiment: Aβ production by Neuro2a cells stably transfected with hyg-sa134 (total Aβ in media, sandwich ELISA); assay type: cell-based, mouse; conditions: 5 h; about 400 ng/ml leptin alone or 10 μM water-soluble cholesterol alone; FIG. 4b

B1: Leptin: peptide hormone controlling adaptive metabolic mechanisms to energy availability; leptin (Harbor-UCLA) in vitro, recombinant murine leptin in mice (protein, UniProt P41160 22-167, looked up)
Leptin: VPIQKVQDDTKTLIKTIVTRINDISHTQSVSAKQRVTGLDFIPGLHPILSLSKMDQTLAVYQQVLTSLPSQNVLQIANDLENLRDLLHLLAFSKSCSLPQTSGLQKPESLDGVLEASLYSTEVVALSRLQGSLQDILQQLDVSPEC
- levels of circulating Aβ (total Aβ in the plasma) (Tg2576 mice; Tg2576, both diets, 2 month leptin infusion): lower the levels of circulating Aβ under both diets
- APP expression in adipocytes (Tg2576 mice; adipose tissue of mice under high or low fat diets, data not shown): no apparent influence
- fasting insulin levels (plasma, RIA) (Tg2576 mice; all groups (WT and Tg2576, LFD and HFD), 2 month leptin infusion): decreased fasting insulin levels in all groups
- brain Aβ load (Tg2576 mice; chronic administration, s.c. Alzet pump about 20 μg leptin daily, up to 8 weeks): reduced the brain Aβ load
- levels of Aβ detected in the media (percentage of corresponding controls) [1]: 56±5%
